For this test, the target named is T1, recombinant Streptomyces antibioticus tyrosinase (Streptomyces antibioticus, UniProt P07524).
T1 construct: expressed in transfected cells; host or cells: E. coli XL1-Blue co-transformed with pDIM-NY (pDIMN-Y) and pARCP-p or pARCP2-6H
T1 sequence (P07524 whole entry, looked up): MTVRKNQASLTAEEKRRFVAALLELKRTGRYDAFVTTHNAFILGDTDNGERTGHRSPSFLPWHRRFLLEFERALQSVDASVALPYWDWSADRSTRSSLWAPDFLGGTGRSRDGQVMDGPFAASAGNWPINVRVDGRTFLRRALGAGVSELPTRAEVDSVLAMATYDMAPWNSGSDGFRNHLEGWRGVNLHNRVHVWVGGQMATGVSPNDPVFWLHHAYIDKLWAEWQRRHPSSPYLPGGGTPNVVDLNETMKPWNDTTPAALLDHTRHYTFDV
Nature of the test: In vivo assay on FeCuY plates to detect tyrosinase inhibition (pigment formation) by co-expressed cyclic peptide. Conditions: co-expression in tyrosinase expressing XL1-Blue cells on FeCuY plates, L-(+)arabinose (0.5%) induction. It is filed as cell-based, Escherichia coli XL1-Blue. The text has this: FIG. 7 is a photograph of FeCuY plates used in an in vivo assay to detect tyrosinase inhibition by pseudostellarin F.
The tyrosinase gene (including ORF 438) from Streptomyces antibioticus (Berman et al, Gene 37:101, 1985) was amplified with Vent-polymerase from pIJ702 (ATCC no. 35287) with primers introducing 5′
Ndel and 3′ EcoRI restriction sites. The PCR product was digested with Ndel and EcoRI and ligated into similarly digested pDIMN2 (Ostermeier et al, supra) to generate pDIMN-Y. Transformed ligation mixtures were grown at ambient temperature for 5 days, and colonies that expressed tyrosinase were identified by pigment formation on FeCuY plates [LB agar plates containing ampicillin (200 ug/ml), FeCI3.6H2O (0.2 mM), CuS04.5H2O (0.2 mM), L-tyrosine (0.3 mg/ml, Y) and isopropyl-B-D-galactoside (1 mM)] (Della-Cioppa, G. et al., Biotechnology 8:634, 1990).
Pseudostellarin F production was readily detected in vivo through inhibition of recombinant Streptomyces antibioticus tyrosinase (FIG. 7). In the experiment shown in FIG. 7, XLI-Blue cells were co-transformed with pDIM-NY and either pARCP2-6H (a & b) or pARCP-p (c & d). The cells were plated on FeCuY plates with chloramphenicol (50 ug/ml), either without (a & c) or with (b & d) L-(+)arabinose (0.5%).

Regarding “cyclo-[Ser-Gly-Gly-Tyr-Leu-Pro-Pro-Leu] (SGGYLPPL; backbone cyclized; printed: Ser-Gly-Gly-Tyr-Leu-Pro-Pro-Leu) [pseudostellarin F, backbone cyclic peptide produced in E. coli from pARCP-p by intein-mediated cyclization]”, the “tyrosinase inhibition (pigment formation)” value is given as “dramatically reduced pigment formation”.
As for “cyclo-[CHMHHHHHHGAGAA] (backbone cyclized) [cyclic peptide from pARCP2-6H, unrelated cyclic peptide encoded by plasmid pARCP2-6H, used as negative control]”, the entry is “failed to inhibit tyrosinase”.

The values above are taken from patent publication US7846710B2, “Cell comprising an intein for the production of a cyclic peptide” (The Penn State Research Foundation, priority 1998, dated 2010).
